Results from US20120077957A1 (PALATIN TECHNOLOGIES, published 2012).
Like-named read-outs stand apart in the source and are kept apart here. Numbered stars: 1 amine (or outer) side, 2 acyl side, 3 side chain; on linkers, the order of the positions; unused ones are H or OH. Bridge positions count the residues as written; N and C are the ends. Square brackets hold non-standard residues; d marks the D form. * marks the point of attachment. Pro(trans-4-NH2) = O=C([C@@H]1C[C@@H](N[*:3])CN1[*:1])[*:2]; Met(O2) = CS(=O)(=O)CC[C@H](N)C(=O)O; Hyp = O=C(O)[C@@H]1C[C@@H](O)CN1; Cit = NC(=O)NCCC[C@H](N)C(=O)O; Orn = NCCC[C@H](N)C(=O)O; Dab = NCC[C@H](N)C(=O)O; NHcPr = C1CC1N*

B1: Asp...Lys analog of peptide No. 18: Ac-Arg-cyclo(Asp-Dab(Acetyl)-D-Phe-Arg-Trp-Lys)-NH2 (peptide)
peptide: Ac-RD[Dab](Ac)[dF]RWK-NH2
modifications: lactam 2-7
SMILES: CC(=O)NCC[C@@H]1NC(=O)[C@@H](NC(=O)[C@H](CCCNC(=N)N)NC(C)=O)CC(=O)NCCCC[C@@H](C(N)=O)NC(=O)[C@H](Cc2c[nH]c3ccccc23)NC(=O)[C@H](CCCNC(=N)N)NC(=O)[C@@H](Cc2ccccc2)NC1=O
B2: Asp...Lys analog of peptide No. 19: Ac-Arg-cyclo(Asp-Gln-D-Phe-Arg-Trp-Lys)-NH-cycProp (peptide)
peptide: Ac-RDQ[dF]RWK-NHcPr
modifications: lactam 2-7
notes: also called Peptide Structure (Asp...Lys) in the row of No. 19
B3: Asp...Lys analog of peptide No. 20: Ac-Arg-cyclo(Asp-Asn-D-Phe-Arg-Trp-Lys)-OH (peptide)
peptide: Ac-RDN[dF]RWK-OH
modifications: lactam 2-7
notes: also called Peptide Structure (Asp...Lys) in the row of No. 20
B4: Asp...Lys analog of peptide No. 13: Ac-Arg-cyclo(Asp-Met(O2)-D-Phe-Arg-Trp-Lys)-NH2 (peptide)
peptide: Ac-RD[Met(O2)][dF]RWK-NH2
modifications: lactam 2-7
notes: also called Peptide Structure (Asp...Lys) in the row of No. 13
B5: Asp...Lys analog of peptide No. 16: Ac-Arg-cyclo(Asp-Lys-D-Phe-Arg-Trp-Lys)-NH2 (peptide)
peptide: Ac-RDK[dF]RWK-NH2
modifications: lactam 2-7
notes: also called Peptide Structure (Asp...Lys) in the row of No. 16
B6: Asp...Lys analog of peptide No. 32: Ac-Arg-cyclo(Asp-Pro(4R-NH2)-D-Phe-Arg-Trp-Lys)-NH2 (peptide)
peptide: Ac-RD[Pro(trans-4-NH2)][dF]RWK-NH2
modifications: lactam 2-7
notes: also called Peptide Structure (Asp...Lys) in the row of No. 32
B7: Asp...Lys analog of peptide No. 14: Ac-Arg-cyclo(Asp-Hyp-D-Phe-Arg-Trp-Lys)-NH2 (peptide)
peptide: Ac-RD[Hyp][dF]RWK-NH2
modifications: lactam 2-7
notes: also called Peptide Structure (Asp...Lys) in the row of No. 14
B8: Asp...Lys analog of peptide No. 11: Ac-Arg-cyclo(Asp-Gln-D-Phe-Arg-Trp-Lys)-OH (peptide)
peptide: Ac-RDQ[dF]RWK-OH
modifications: lactam 2-7
notes: also called Peptide Structure (Asp...Lys) in the row of No. 11
B9: Asp...Lys analog of peptide No. 15: Ac-Arg-cyclo(Asp-Cit-D-Phe-Arg-Trp-Lys)-NH2 (peptide)
peptide: RDXFRWK
modifications: N-terminal acetyl; Cit (citrulline) at 3; D-Phe at 4; side-chain lactam Asp2-Lys7; C-terminal amide (-NH2)
B10: Peptide No. 1: Ac-Nle-cyclo(Glu-His-D-Phe-Arg-Trp-Orn)-OH (peptide)
peptide: XEHFRWX
modifications: N-terminal acetyl; Nle at 1; D-Phe at 4; Orn at 7; side-chain lactam Glu2-Orn7; C-terminal -OH
B11: Peptide No. 2: Ac-Nle-cyclo(Glu-His-D-Phe-Arg-Trp-Orn)-NH2 (peptide)
peptide: XEHFRWX
modifications: N-terminal acetyl; Nle at 1; D-Phe at 4; Orn at 7; side-chain lactam Glu2-Orn7; C-terminal amide (-NH2)
B12: Asp...Lys analog of peptide No. 21: Ac-cyclo(Asp-Gln-D-Phe-Arg-Trp-Lys)-NH2 (peptide)
peptide: Ac-DQ[dF]RWK-NH2
modifications: lactam 1-6
SMILES: CC(=O)N[C@H]1CC(=O)NCCCC[C@@H](C(N)=O)NC(=O)[C@H](Cc2c[nH]c3ccccc23)NC(=O)[C@H](CCCNC(=N)N)NC(=O)[C@@H](Cc2ccccc2)NC(=O)[C@H](CCC(N)=O)NC1=O
notes: also called Peptide Structure (Asp...Lys) in the row of No. 21

How the values were obtained:
[1] = target: T1, human melanocortin-4 receptor (recombinant hMC4-R) (human, UniProt P32245 1-332); assay: cell-based or functional assay
T1 sequence (P32245 whole entry): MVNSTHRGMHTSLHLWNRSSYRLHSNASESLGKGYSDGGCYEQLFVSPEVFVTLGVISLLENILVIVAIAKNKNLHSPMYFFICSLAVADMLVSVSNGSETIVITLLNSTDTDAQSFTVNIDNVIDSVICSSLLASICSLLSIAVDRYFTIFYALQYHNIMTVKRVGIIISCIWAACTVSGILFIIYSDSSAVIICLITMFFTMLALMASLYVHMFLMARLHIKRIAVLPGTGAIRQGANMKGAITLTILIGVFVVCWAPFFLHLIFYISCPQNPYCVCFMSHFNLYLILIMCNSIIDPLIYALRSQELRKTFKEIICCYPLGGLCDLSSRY

[2] = target: T1, human melanocortin-4 receptor …; assay: cell-based or functional assay; remark: listed apart in the source
[3] = target: T1, human melanocortin-4 receptor …; assay: competition with labelled NDP-α-MSH ([I125] or Eu), hMC4-R HEK-293 membranes
Protocol: After incubation for 60 minutes at 37° C., the assay mixture was filtered and the membranes washed three times with ice-cold buffer. Filters were dried and counted in a gamma counter for bound radioactivity. […] Maximal specific binding (100%) was defined as the difference in radioactivity (cpm) bound to cell membranes in the absence and presence of 1 μM NDP-α-MSH. […] Ki values for test peptides of the present invention were determined using Graph-Pad Prism® curve-fitting software.
After incubation for 90 minutes at 37° C., the reaction was stopped by filtration over AcroWell 96-well filter plates (Pall Life Sciences). The filter plates were washed 4 times with 200 μL of ice-cold phosphate-buffered saline. DELFIA Enhancement solution (PerkinElmer Life Sciences) was added to each well. The plates were incubated on a shaker for 15 minutes and read at 340 nm excitation and 615 nm emission wavelengths. Each assay was conducted in duplicate and mean values were utilized. Ki values were determined by curve-fitting with Graph-Pad Prism® software using a one-site fixed-slope competition binding model.

Row | Binder | Emax (%), cAMP [1] [%] | Ec50 (nM), cAMP [1] [nM] | Emax (%), cAMP [2] [%] | Ki [3] [nM] | Ec50 (nM), cAMP [2] [nM]
1 | Ac-REQ[dF]RW[Orn]-NH2 (lactam 2-7) [Peptide No. 12: Ac-Arg-cyclo(Glu-Gln-D-Phe-Arg-Trp-Orn)-NH2] | 96 |  |  |  | 
2 | B1 | 69 |  |  |  | 
3 | Ac-RE[Dab][dF]RW[Orn]-NH2 (lactam 2-7) [Peptide No. 6: Ac-Arg-cyclo(Glu-Dab-D-Phe-Arg-Trp-Orn)-NH2] | 94 | 0.3 |  |  | 
4 | Ac-[dR]DH[dF]RWK-NH2 (lactam 2-7) [Asp...Lys analog of peptide No. 39: Ac-D-Arg-cyclo(Asp-His-D-Phe-Arg-Trp-Lys)-NH2] |  |  | 89 |  | 
5 | Ac-RE[Orn][dF]RW[Orn]-OH (lactam 2-7) [Peptide No. 7: Ac-Arg-cyclo(Glu-Orn-D-Phe-Arg-Trp-Orn)-OH] | 92 |  |  |  | 
6 | Ac-[dR][Orn]Q[dF]RWE-NH2 (lactam 2-7) [Peptide No. 45: Ac-D-Arg-cyclo(Orn-Gln-D-Phe-Arg-Trp-Glu)-NH2] |  |  | 89 |  | 
7 | Ac-RE[Dab](Ac)[dF]RW[Orn]-NH2 (lactam 2-7) [Peptide No. 18: Ac-Arg-cyclo(Glu-Dab(Acetyl)-D-Phe-Arg-Trp-Orn)-NH2] | 75 |  |  |  | 
8 | Ac-RDH[dF]RWK-NH2 (lactam 2-7) [Asp...Lys analog of peptides No. 4 and No. 38: Ac-Arg-cyclo(Asp-His-D-Phe-Arg-Trp-Lys)-NH2] | 83 |  | 83 |  | 
9 | Ac-R[Orn][Dab][dF]RWE-OH (lactam 2-7) [Peptide No. 42: Ac-Arg-cyclo(Orn-Dab-D-Phe-Arg-Trp-Glu)-OH] |  |  | 100 |  | 
10 | Ac-RD[Orn](Ac)[dF]RWK-NH2 (lactam 2-7) [Asp...Lys analog of peptide No. 33: Ac-Arg-cyclo(Asp-Orn(Acetyl)-D-Phe-Arg-Trp-Lys)-NH2] | 62 | 532 |  |  | 
11 | Ac-REQ[dF]RW[Orn]-NHcPr (lactam 2-7) [Peptide No. 19: Ac-Arg-cyclo(Glu-Gln-D-Phe-Arg-Trp-Orn)-NH-cycProp] | 91 |  |  |  | 
12 | Ac-REQ[dF]RW[Orn]-OH (lactam 2-7) [Peptide No. 11: Ac-Arg-cyclo(Glu-Gln-D-Phe-Arg-Trp-Orn)-OH] | 81 |  |  |  | 
13 | Ac-REH[dF]RW[Orn]-OH (lactam 2-7) [Peptide No. 3: Ac-Arg-cyclo(Glu-His-D-Phe-Arg-Trp-Orn)-OH] | 83 | 0.7 |  | 24 | 
14 | Ac-REH[dF]RW[Orn]-NH2 (lactam 2-7) [Peptide No. 4: Ac-Arg-cyclo(Glu-His-D-Phe-Arg-Trp-Orn)-NH2] | 83 | 0.2 |  | 1 | 
15 | Ac-RE[Hyp][dF]RW[Orn]-NH2 (lactam 2-7) [Peptide No. 14: Ac-Arg-cyclo(Glu-Hyp-D-Phe-Arg-Trp-Orn)-NH2] | 104 |  |  |  | 
16 | Ac-RER[dF]RW[Orn]-NH2 (lactam 2-7) [Peptide No. 10: Ac-Arg-cyclo(Glu-Arg-D-Phe-Arg-Trp-Orn)-NH2] | 98 |  |  |  | 
17 | Ac-RE[Met(O2)][dF]RW[Orn]-NH2 (lactam 2-7) [Peptide No. 13: Ac-Arg-cyclo(Glu-Met(O2)-D-Phe-Arg-Trp-Orn)-NH2] | 71 | 5 |  |  | 
18 | Ac-REK[dF]RW[Orn]-NH2 (lactam 2-7) [Peptide No. 16: Ac-Arg-cyclo(Glu-Lys-D-Phe-Arg-Trp-Orn)-NH2] | 104 |  |  | 15 | 
19 | Ac-RER[dF]RW[Orn]-OH (lactam 2-7) [Peptide No. 9: Ac-Arg-cyclo(Glu-Arg-D-Phe-Arg-Trp-Orn)-OH] | 82 |  |  |  | 
20 | Ac-RDH[dF]RWK-OH (lactam 2-7) [Asp...Lys analog of peptides No. 3 and No. 37: Ac-Arg-cyclo(Asp-His-D-Phe-Arg-Trp-Lys)-OH] | 91 |  | 91 |  | 

Row | Binder | Emax (%), cAMP [1] [%] | Ec50 (nM), cAMP [1] [nM] | Emax (%), cAMP [2] [%] | Ki [3] [nM] | Ec50 (nM), cAMP [2] [nM]
21 | B2 | 79 | 9 |  | 64 | 
22 | B3 | 73 | 81 |  | 100 | 
23 | Ac-RDR[dF]RWK-NH2 (lactam 2-7) [Asp...Lys analog of peptide No. 10: Ac-Arg-cyclo(Asp-Arg-D-Phe-Arg-Trp-Lys)-NH2] | 68 |  |  |  | 
24 | B4 | 29 | 35 |  | 7 | 
25 | B5 | 97 |  |  | 30 | 
26 | B6 | 61 |  |  | 5 | 
27 | B7 | 39 | 27 |  | 4 | 
28 | B8 | 80 | 19 |  | 115 | 
29 | Ac-RDQ[dF]RWK-NH2 (lactam 2-7) [Asp...Lys analog of peptides No. 12 and No. 44: Ac-Arg-cyclo(Asp-Gln-D-Phe-Arg-Trp-Lys)-NH2] | 85 | 17 | 85 |  | 17
30 | Ac-RDR[dF]RWK-OH (lactam 2-7) [Asp...Lys analog of peptide No. 9: Ac-Arg-cyclo(Asp-Arg-D-Phe-Arg-Trp-Lys)-OH] | 75 |  |  |  | 
31 | Ac-RD[Orn][dF]RWK-NH2 (lactam 2-7) [Asp...Lys analog of peptide No. 8: Ac-Arg-cyclo(Asp-Orn-D-Phe-Arg-Trp-Lys)-NH2] | 79 | 0.8 |  |  | 
32 | Ac-RE[Cit][dF]RW[Orn]-NH2 (lactam 2-7) [Peptide No. 15: Ac-Arg-cyclo(Glu-Cit-D-Phe-Arg-Trp-Orn)-NH2] | 87 |  |  |  | 
33 | B9 | 69 |  |  |  | 
34 | B10 | 97 | 0.5 |  |  | 
35 | B11 | 93 | 0.1 |  | 0.1 | 
36 | Ac-RD[Dab][dF]RWK-OH (lactam 2-7) [Asp...Lys analog of peptides No. 5 and No. 42: Ac-Arg-cyclo(Asp-Dab-D-Phe-Arg-Trp-Lys)-OH] | 91 | 4 | 91 |  | 4
37 | Ac-RD[Orn][dF]RWK-OH (lactam 2-7) [Asp...Lys analog of peptide No. 7: Ac-Arg-cyclo(Asp-Orn-D-Phe-Arg-Trp-Lys)-OH] | 84 | 12 |  |  | 
38 | Ac-RE[Dab][dF]RW[Orn]-OH (lactam 2-7) [Peptide No. 5: Ac-Arg-cyclo(Glu-Dab-D-Phe-Arg-Trp-Orn)-OH] | 94 |  |  |  | 
39 | Ac-RD[Dab][dF]RWK-NH2 (lactam 2-7) [Asp...Lys analog of peptides No. 6 and No. 43: Ac-Arg-cyclo(Asp-Dab-D-Phe-Arg-Trp-Lys)-NH2] | 91 | 0.3 | 91 |  | 0.3
40 | B12 | 35 | 148 |  | 99 | 
